Experiments:
[1] = biological target: T1, mouse KRT14 (Keratin, type I cytoskeletal 14) as expressed by murine ID8 ovarian cancer cells (Mus musculus (Mouse), UniProt Q61781 1-484); assay: flow cytometry of cardiac blood stained with anti-CD45 and mAb AN-17
T1 construct: whole, on cells; also called non-human protein
T1 sequence (looked up): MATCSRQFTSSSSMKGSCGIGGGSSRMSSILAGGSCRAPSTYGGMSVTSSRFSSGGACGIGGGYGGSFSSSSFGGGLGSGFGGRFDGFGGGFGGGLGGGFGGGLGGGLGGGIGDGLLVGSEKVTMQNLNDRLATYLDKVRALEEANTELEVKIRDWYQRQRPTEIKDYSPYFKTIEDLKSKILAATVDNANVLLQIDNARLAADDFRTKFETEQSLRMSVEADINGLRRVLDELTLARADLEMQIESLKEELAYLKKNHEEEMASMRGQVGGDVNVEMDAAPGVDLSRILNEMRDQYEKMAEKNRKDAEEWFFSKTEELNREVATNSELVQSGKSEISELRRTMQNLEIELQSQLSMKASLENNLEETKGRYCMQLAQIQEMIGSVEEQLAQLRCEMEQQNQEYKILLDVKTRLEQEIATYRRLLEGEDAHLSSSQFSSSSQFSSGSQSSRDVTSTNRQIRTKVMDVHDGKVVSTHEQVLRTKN
Procedure: Cardiac blood was taken from mice bearing 12-week old ID8 iRFP720+ epithelial ovarian tumours and stained using anti-CD45 and mAb AN-17. Circulating ID8 tumour cells were identified as KRT14+CD45− cells and confirmed by iRFP720+ status. iRFP720+ID8 cells spiked into blood was used as a positive control.
(§1) Flow cytometry was carried out according to standard protocols (PMID: 30602661), with data acquired using a BD LSRFortessa X-20 (BD Biosciences) and analysed using FlowJo software v10.5.0 (BD Biosciences). Samples assessed for KRT14+ cell populations included OVCAR3, CAOV4, ID8 mouse ovarian cancer cells, ascites-derived ovarian cancer cells derived from a clinical specimen (designated #3.1937-07) and cardiac blood from a mice bearing 12-week old epithelial ovarian tumours. For cell lines, 1×10⁶ cells per cell line were incubated with either mAb AN-17 (1:200 dilution) or a commercially available anti-KRT14 polyclonal antibody (Sigma SAB4501657; 1:50 dilution) as a positive control for 45 mins in non-immune serum at room temperature. The secondary antibodies, goat anti-mouse Alexa647 (mAb AN-17) or goat anti-rabbit IgG Alexa 488 (commercial Ab), were diluted 1:500 and incubated for 30 minutes. For blood samples. 2×10⁶ cells were incubated with an Alexa Fluor® 488-conjugated mAb AN-17 antibody for 45 minutes. […]

[2] = biological target: T2, human KRT14 (Keratin, type I cytoskeletal 14) as expressed by human cancer cells and tumour tissue (Homo sapiens (Human), UniProt P02533 1-472); assay: flow cytometry
T2 construct: whole, on cells; Probed on intact cells (surface-exposed N-terminal portion), on permeabilized cells and in FFPE tissue sections; also called K14; Keratin-14
T2 sequence (looked up): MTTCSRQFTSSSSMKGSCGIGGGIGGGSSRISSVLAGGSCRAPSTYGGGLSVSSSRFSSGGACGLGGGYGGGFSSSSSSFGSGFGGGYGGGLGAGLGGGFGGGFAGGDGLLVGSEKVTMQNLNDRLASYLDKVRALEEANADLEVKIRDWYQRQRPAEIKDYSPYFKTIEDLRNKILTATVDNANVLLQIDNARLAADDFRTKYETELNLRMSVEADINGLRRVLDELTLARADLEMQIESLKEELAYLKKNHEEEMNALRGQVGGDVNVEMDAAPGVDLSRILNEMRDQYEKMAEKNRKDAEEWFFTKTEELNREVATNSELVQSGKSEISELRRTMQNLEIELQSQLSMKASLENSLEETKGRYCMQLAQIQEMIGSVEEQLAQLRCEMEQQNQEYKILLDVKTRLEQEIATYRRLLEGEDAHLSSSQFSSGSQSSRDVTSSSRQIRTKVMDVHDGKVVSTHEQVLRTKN
Procedure: OVCAR3, CAOV4, ID8 and the patient-derived 3.1937-07 cell lines were analysed on a BD LSRFortessa X-20 (BD Biosciences) flow cytometer for KRT14+ cell populations, using mAb AN-17 or a commercially available polyclonal antibody to KRT14 (Sigma SAB4501657).
as §1

binding result [1]: binds
binding result [2]: binds
B1: monoclonal anti-KRT14 antibody AN-17 (antibody, V domains shown)
VH: QVQLKESGPGLVAPSQSLSITCTVSGFSLSRYSVHWVRQPPGKGLEWLGMIWGGGSTDYNSALKSRLSISKDNSKSQVFLKMNSLQTDDTAMYYCARKDYGYSYFDYWGQGTTLTVSS
VL: DVLMTQTPLSLPVSLGDQASISCRSSQSIVHSNGNTYLEWYLQKPGQSPKLLIYKVSNRFSGVPDRFSGSGSGTDFTLKISRVEAEDLGVYYCFQGSHVPFTFGSGTKLEIKR
notes: the isotype-matched control used is mouse IgG1 kappa; Some assays used it conjugated to Alexa Fluor 488 or Alexa-647; also called mAb AN-17; mAb AN17
